This note sets out measurements from patent US20180244776A1.

B1: F11 anti-Sema3A scFv antibody fragment (scFv, part only; not given: linker and His/HA tags, V domains shown, not shown: another chain or arm of the molecule; large carriers; small tags and cut ends)
VH: EVQLLESGGGLVQTGGSLRLSCAASGFTFSDYAMSWVRQAPGKGLEWVSWIYYDSGSKYYADSVKGRFTISRDNSKNTLYLQMNSLRAEDTAVYYCAKLNGDFDYWGQGTLVTVSS
VL: QSVLTQPPSASGTPGQRVTISCSGSSSNIGNNDVSWYQQLPGTAPKLLIYADSHRPSGVPDRFSGSKSGTSASLAISGLRSEDEADYYCGAWDSSLSGYVFGGGTKLTVL
B2: A08 anti-Sema3A scFv antibody fragment (scFv, part only; not given: linker and His/HA tags, V domains shown, not shown: another chain or arm of the molecule; large carriers; small tags and cut ends)
VH: EVQLLESGGGLVQPGGSLRLSCAASGFTFSDYAMSWVRQAPGKGLEWVSGIYYDDSSQYYADSVKGRFTISRDNSKNTLYLQMNSLRAEDTAVYYCAKNLGRFDYWGQGTLVTVSS
VL: QSVLTQPPSASGTPGQRVTISCTGSSSNIGSNAVTWYQQLPGTAPKLLIYDDNHRPSGVPDRFSGSKSGTSASLAISGLRSEDEADYYCGAWDDSLSAYVFGGGTKLTVL
B3: C10 anti-Sema3A scFv antibody fragment (scFv, part only; not given: linker and His/HA tags, V domains shown, not shown: another chain or arm of the molecule; large carriers; small tags and cut ends)
VH: EVQLLESGGGLVQPGGSLRLSCAASGFTFSDYAMSWVRQAPGKGLEWVSGIYYDDSSQYYADSVEGRFTISRDNSKNTLYLQMNSLRAEDTAVYYCARYLGLFDYWGQGTLVTVSS
VL: QSVLTQPPSASGTPGQRVTISCSGSSSNIGNNSVNWYQQLPGTAPKLLIYSDSQRPSGVPDRFSGSKSGTSASLAISGLRSEDEADYYCGSWDYSLSAYVFGGGTKLTVL

This assay has as its target T1, human Sema3A (human) (UniProt Q14563).
T1 sequence (looked up): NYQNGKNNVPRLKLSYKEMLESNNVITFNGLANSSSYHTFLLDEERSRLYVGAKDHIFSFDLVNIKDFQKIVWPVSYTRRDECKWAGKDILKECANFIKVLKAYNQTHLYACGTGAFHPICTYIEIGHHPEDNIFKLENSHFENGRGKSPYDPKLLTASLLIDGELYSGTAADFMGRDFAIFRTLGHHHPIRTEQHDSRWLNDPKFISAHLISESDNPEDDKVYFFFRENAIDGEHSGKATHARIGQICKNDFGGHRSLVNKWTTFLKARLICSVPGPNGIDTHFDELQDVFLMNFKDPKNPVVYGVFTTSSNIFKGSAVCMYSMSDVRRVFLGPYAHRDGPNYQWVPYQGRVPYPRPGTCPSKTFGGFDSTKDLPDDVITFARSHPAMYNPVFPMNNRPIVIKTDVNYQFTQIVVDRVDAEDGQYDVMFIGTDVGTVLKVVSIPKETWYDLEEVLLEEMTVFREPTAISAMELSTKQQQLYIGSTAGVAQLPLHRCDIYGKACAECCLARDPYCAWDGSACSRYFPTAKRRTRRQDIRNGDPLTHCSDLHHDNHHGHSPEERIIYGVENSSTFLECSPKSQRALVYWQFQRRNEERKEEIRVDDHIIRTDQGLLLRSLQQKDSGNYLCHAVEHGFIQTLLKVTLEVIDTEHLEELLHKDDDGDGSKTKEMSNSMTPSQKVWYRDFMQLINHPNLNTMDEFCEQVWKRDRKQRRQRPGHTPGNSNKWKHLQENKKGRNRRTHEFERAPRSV
Kind of assay: cell-based or functional assay.
For the molecule B1, the cell migration of U87-MG cells (transwell, 50 ug/ml scFv) is 74 % of control; the cell migration of patient-derived 83 cells (transwell) is 28%; the cell migration of patient-derived 131 cells (transwell) stood at 7%.
In the same order, the values of B2 are 78 % of control, 21% and 11%.
In the same order, the values of B3 are 70 % of control, 44% and 19%.
